# Results published in patent US11220682B2 (SOGANG UNIVERSITY RESEARCH & BUSINESS DEVELOPMENT FOUNDATION, priority 2017, dated 2022).
# Substitutions are numbered along the chain they refer to.
# B1: DOPA-RS2 (protein)
# chain: MDEFEMIKRNTSEIISEEELREVLEKDEKSALIGFEPSGKIHLGHYLQIKKMIDLQNAGFDIIILLSDLNAYLNQKGELDEIRKIGDYNKKVFEAMGLKAKYVYGSEFQLDKDYTLNVYRLALKTTLKRARRSMELIAREDENPKVAEVIYPIMQVNDIHYLGVDVLVGGMEQRKIHMLARELLPKKVVCIHNPVLTGLDGEGKMSSSKGNFIAVDDSPEEIRAKIKKAYCPAGVVEGNPIMEIAKYFLEYPLTIKRPEKFGGDLTVNSYEELESLFKNKELHPMDLKNAVAEELIKILEPIRKRL
# modifications: Artificial DOPA_RS-2 Sequence
# B2: DOPA-RS1 (protein)
# chain: B1 chain with L167N
# modifications: Artificial DOPA_RS-1 Sequence
# Experiments:
# Type in all cases: cell-based, E. coli
# bacterial cell growth = assay: Bacterial cell growth / cell density in growth medium
# Protocol: The starter culture (2 mL) was transferred to a limiting medium (100 mL) (50 mM Na2HPO4, 50 mM KH2PO4, 50 mM (NH4)2504, 2 mM MgSO4, 0.1% trace metals, 0.5% glycerol, 0.05% glucose, and 5% amino acids, and pH 7.25) supplemented with ampicillin (100 μg/mL), chloramphenicol (35 μg/mL), 100 μM pyruvate, 10 mM catechol, and 300 μM DTT at 30° C. Protein expression was induced by adding 0.2% L-arabinose when the optical density reached 0.8, and the culture was cultured overnight at 30° C.
# A simple solution was to maximize the concentrations of catechol, pyruvate, and ammonia in a growth medium. […] In the growth medium, 50 mM pyruvate and 25 mM ammonia were added as starting materials together with various concentrations (0 mM to 10 mM) catechol.
# [1] = system: emGFP containing an amber mutation (TAG) at position 39 or 90; assay: emGFP fluorescence from cytolysate, efficiency of genetic incorporation of L-DOPA; settings: all L-DOPA concentrations (1 mM to 3 mM), positions 39 and 90 of emGFP
# Excerpt: (§1) A wild-type emGFP gene was obtained from commercially available sources by gene synthesis, amplified by PCR, and inserted between the BspHI and KpnI sites of pBAD/Myc-His (Invitrogen) to generate pBAD-emGFP (SEQ ID NO: 10). An amber codon (TAG) was incorporated at position 39 or 90 in the emGFP by site-specific mutants. A plasmid containing each amber codon was incorporated into E. coli DH10 used as a prokaryote host cell with pEvol-DOPA-RS1 (SEQ ID NO: 6), pEvol-DOPA-RS2 (SEQ ID NO: 7), or pEvol-DOPA-RS (SEQ ID NO: 8) to co-transform the E. coli DH10 (Comparative Example 1: […], Example 1: DOPA-RS1, Example 2: DOPA-RS2). Cells were amplified in an LB medium (lysogeny broth) supplemented with ampicillin (100 μg/mL) and chloramphenicol (35 μg/mL). […] Protein concentrations were calculated by measuring absorbance at 280 nm and using the calculated extinction coefficient (2.2×10^4 cm^−1M^−1 for emGFP).
# Cells (2×10^9) were harvested by centrifugation at 10,000 rpm and 4° C. for 5 minutes, and cell pellets were lysed for 1 hour with Bugbuster (Novagen) (50 μL) supplemented with benzonase (Sigma) ([…]). The cytolysate was removed by centrifugation at 13,000 rpm and 4° C. for 10 minutes, and the supernatant was directly used for fluorescence measurement. Fluorescence was measured at 510 nm with excitation at 487 nm. […]
# emGFP-E90DOPA = assay: MALDI-TOF MS analysis of tryptic digest of emGFP-E90DOPA, specificity of incorporation; settings: 3 mM L-DOPA, position 90
# Excerpt: as §1, with “Protein expression was induced by adding 0.2% L-arabinose when the optical density reached 0.8, and the culture was cultured overnight at 37° C. […] Protein” for “Protein”, “emGFP). […]” for “emGFP).”
# In order to express an emGFP-E90DOPA mutant, the expressed protein was purified, followed by tryptic degradation and then evaluated by MALDI-TOF (matrix-assisted laser desorption/ionization-time of flight) MS analysis (FIG. 2). […]
Molecule,toxicity (bacterial cell growth; 10 mM catechol),"concentration that inhibited bacterial cell growth (bacterial cell growth; preliminary test, growth medium)","efficiency in incorporation of L-DOPA (emGFP expression), rank order [1]",incorporation of tyrosine (emGFP-E90DOPA)
Oc1ccccc1O [catechol],a reasonable toxicity was observed,more than 8 mM,–,–
B1,–,–,DOPA-RS2>DOPA-RS1>DOPA-RS,not detected
B2,–,–,DOPA-RS2>DOPA-RS1>DOPA-RS,not detected
